Entries after “also recorded” stand apart in the source; their conditions may differ. Square brackets hold non-standard residues; d marks the D form. Ends that are not written are not given here.
Columns and labels:
Type in all cases: physicochemical
[1] = High-throughput centrifuge analysis of mechanical properties of the hydrogels (surface deformation, metal bead penetration); settings: for Deformation speed: 50 μl 1×PBS, 45° centrifuge; for Penetration speed: 275 μm metal beads
Procedure: (§1) ATIII is a heparin-binding peptide known from the literature. All peptides are connected to a four-armed, maleimide functionalized 10-kDa-polyethylene glycol (starPEG). The hydrogel formation was tested in a 50 μI mixture, which contains 5 mM 14-kDa-heparin and 5 mM (2.5 mM) peptide-starPEG conjugate in phosphate buffer solution (1×PBS, pH 7.4). The deformation and penetration speed was analyzed through centrifuging the hydrogel in a 45° table centrifuge with 275 μm metal beads added to the surface. The deformation of the surface and the penetration of the metal beads were monitored in dependence on the applied force.
A comparative high-throughput analysis was performed regarding the mechanical properties of the hydrogels. In order to provide a fast high-throughput method for comparing small amounts of hydrogel, a tabletop centrifuge (5424R, Eppendorf, Hamburg, Germany) was used. For this purpose, 50 μl of the hydrogel were formed by mixing the peptide-starPEG-conjugates and 14-kDa-heparin in phosphate buffer (1×PBS, pH 7.4) to a final concentration of 5 mM (once 2.5 mM for KA7-starPEG). The mixture was incubated in 0.2 ml reaction vessels overnight. The deformation of the hydrogel surface was determined in reference to the 45° centrifuge rotor and the penetration of 275 μm metal beads in dependence on the force that has to be produced by the centrifuge. All experiments were repeated three times.
Hereby FIGS. 5A and B show a deformation of the surface of the 50 μl hydrogel in a 0.2 ml reaction tube, more specifically FIG. 5A below the speed required for deforming the surface, and FIG. 5B at the speed required for deforming the surface. FIG. 5C is a schematic representation of the penetration of a small spheres through 50 μl hydrogel in a 0.2 ml reaction tube depending on the force exerted by the 45° centrifuge.
The hydrogels were formed by mixing peptide-starPEG-conjugate and 14-kDa-heparin at 5 mM final concentration in 50 μl phosphate buffer (1×PBS). The analysis was performed by centrifuging the hydrogels in a 45° tabletop centrifuge with 275 μm metal beads on the gel surface. The deformation of the surface and the penetration of the spheres were recorded in dependence on the exerted force.

[2] = Stability of formed hydrogels against different solvents; settings: 24° C., at least three days
Procedure: In order to test the strength of the interaction between the peptide motif and the 14-kDa-heparin the formed hydrogels were tested with regard to different solvents. […] For this the peptide-starPEG-conjugates were mixed with 14 kDa-heparin in 50 μl in physiological phosphate buffer solution (1×PBS) to a final concentration of respectively 5 mM. Each solvent, i.e., physiological phosphate buffer solution (1×PBS), Milli-0-water, 1 M hydrochloric acid (HCl) 1 M sodium hydroxide solution (NaOH), saturated sodium chloride solution (NaCl), dimethyl sulfoxide (DMSO), ethanol and cell culture medium with 2% fetal bovine serum (FBS) were respectively added as 200 μl supernatant to the hydrogel. The hydrogel was incubated at a room temperature of 24° C. and the supernatants where exchanged every day for at least three days. All experiments were performed three times. Under none of the tested conditions the KA7-hydrogel could be destroyed. […] 2,2,2-trifuourethanlol (TFE) is known to destroy any type of secondary structures.

[3] = Hydrogel formation in different solvents; settings: 5 mM conjugate + 5 mM 14-kDa-heparin
Procedure: Three respective different cases were tested in the hydrogel-formation stability test. […] The hydrogels were formed by mixing the final concentrations of respectively 5 mM peptide-starPEG-conjugate and 5 mM 14-kDa-heparin in 50 μl physiological phosphate buffer solution (1×PBS), Milli-Q-water or cell culture medium with 2% fetal bovine serum (FBS). The stability of the hydrogels was tested with the same solvent in which it was formed in 200 μl supernatant. The hydrogels were incubated at room temperature (24° C.), the supernatants were changed every day for at least three days in a row and the result after at least 3 days analyzed.

[4] = Hydrogel formation of peptide-starPEG conjugates with 14-kDa-heparin; settings: peptide coupled to 10-kDa starPEG; 5 mM 14-kDa-heparin + 5 mM (2.5 mM) conjugate, 50 μl 1×PBS pH 7.4
Procedure: Following is the description of the production of the hydrogel networks. Hereby 14-kDa-heparin (25 mM, 2.5 mM) and peptide-starPEG conjugates (6.25 mM, 3.125 mM) were dissolved in physiologic phosphate buffer solution (1×PBS) water or cell culture medium with 2% fetal bovine serum (FBS). These solutions were dissolved in a ratio of 1:4 heparin:peptide-starPEG-conjugate by obtaining […] or 5 mM 14-kDa-heparin and 2.5 mM or 5 mM peptide-starPEG. The ligand/mol ratio was 2:1, 1:1 and 1:5 relative to the mol ratio of 14-kDa-heparin and the peptide-starPEG-conjugate. The mixtures were incubated within a time frame of one hour to overnight at […]. The gelation time spanned from present up to several hours depending on the applied peptide motif.
as §1
In addition to the peptide motif, a tryptophan was labeled with a one letter code W, for UV detection and purification and a cysteine, marked with the one letter code C, bound to the N-terminal end of the peptide with two glycine. By applying the Michael-addition-chemistry, the cysteine was coupled to the maleimide-functionalized 10-kDa-starPEG. […] This is the largest library of peptide-polymer-conjugates, for which each of the oligosaccharide dependent hydrogel formation was analyzed. To analyze the formation of hydrogels, all peptide-starPEG-conjugates were each mixed with 14-kDa-heparin in 50 μI phosphate buffer (1×PBS) to a final concentration of 5 mM. […]

[5] = Erosion experiment with TAMRA-marked 14-kDa-heparin; settings: 5 mM conjugate + 5 mM TAMRA-heparin, cell culture medium with 2% FBS, 37° C.
Procedure: Further, an erosion experiment was conducted. For this purpose peptide-starPEG-conjugates were respectively mixed with TAMRA-marked 14-kDa-heparin. For the erosion experiment the TAMRA-marked 14-kDa-heparin had to be synthesized beforehand. Hereby 14-kDa-heparin was marked with 5-(and-6)-carboxytetramethylrhodamin (TAMRA, Invitrogen) by using the 1-ethyl-3-(3-dimethylaminopropyl)carbodiimide/N-hydroxysulfosuccinimide-(EDAC/sNHS)-chemistry. Heparin, TAMRA, EDAC, sNHS and Na2CO3 were mixed at a ratio of 1:2:5:4:20 in water and incubated overnight. Thereafter the mixture was dialyzed for two days against 10 liters of water in a dialysis membrane with an exclusion limit of 8 kDa with constant exchange of water. The dialyzed product was filtered through a 0.22 μm polyvinylidene fluoride filter (PVDF-filter) and freeze-dried to a red product.
Subsequently the peptide-starPEG-conjugates were respectively mixed with the TAMRA-labelled 14-kDa-heaprin in 50 μl cell culture medium to a final concentration of 5 mM. […] The fluorescence was measured at defined time points in the supernatant by using a plate reading device (BECKMAN COULTER […] Detection platform, BECKAMN COULTER, Brea, Calif., USA) and black 96-well-plates with clear bottom.
Both peptides shoed without heparin a random coiled structure in Milli-Q-water. […] The fluorescence was measured in 200 μl of 1 ml supernatant. […]

[6] = 2.5 mM peptide-starPEG + 5 mM 14-kDa-heparin
[7] = 5 mM peptide-starPEG + 5 mM 14-kDa-heparin
[8] = supernatant 1xPBS, 5 mM conjugate + 5 mM heparin gel
[9] = supernatant Cell culture medium with 2% FBS
[10] = supernatant Saturated NaCl solution
[11] = Cell culture medium with 2% FBS
[12] = PBS, 50 μl, result after at least 3 days

Row | Substance | Deformation speed [1, 6] | Penetration speed [1, 6] | Deformation speed [1, 7] | Penetration speed [1, 7] | Stability of hydrogel against supernatant ([2]; supernatant 1M HCl) | Stability of hydrogel against supernatant ([2]; supernatant 1M NaOH) | Stability of hydrogel against supernatant [2, 8] | Stability of hydrogel against supernatant [2, 9] | Stability of hydrogel against supernatant ([2]; supernatant DMSO) | Stability of hydrogel against supernatant ([2]; supernatant Ethanol) | Stability of hydrogel against supernatant [2, 10] | Stability of hydrogel against supernatant ([2]; supernatant Water) | Hydrogel formation in solvent [3, 11] | Hydrogel formation in solvent [3, 12] | Hydrogel formation in solvent ([3]; water (Milli-Q)) | Hydrogel formation with heparin [4] | Heparin released from the hydrogel (erosion) [5]
1 | CWGGKAKAKAKAKAKAKA [KA7] | 43998 +/- 3139 m/s^2 | 72780 +/- 6926 m/s^2 | >148317 m/s^2 | 138919 +/- 16275 m/s^2 | Stable | Stable | Stable | Stable | Stable | Stable | Stable | Stable | formed | formed | formed | – | –
2 | CWGGkAkAkAkAkAkAkA (CWGG[dK]A[dK]A[dK]A[dK]A[dK]A[dK]A[dK]A) [dKA7] | – | – | – | – | – | – | – | – | – | – | – | – | – | – | – | neither formation of a hydrogel | –
3 | CWGGKAKAKAKAKA [KA5] | – | – | 11223 +/- 4768 m/s^2 | 21209 +/- 2188 m/s^2 | only destroyed by 1 M HCl after more than one week incubation; also recorded: Stable; hydrogel was | Stable | Stable | Stable | Stable | Stable | Stable | Stable | formed | formed | Formed | – | more erosion
4 | CWGGKAKAKAKaKAKAKA (CWGGKAKAKAK[dA]KAKAKA) [KA7-1a] | – | – | – | – | – | – | – | – | – | – | – | – | – | – | – | doesn't form a hydrogel with heparin | –
5 | CWGGRARARARARARARA [RA7] | – | – | 1069 +/- 579 m/s^2 | 1952 +/- 491 m/s^2 | Stable; hydrogel was | Stable | Stable; the surface | Stable | Stable | Stable | Not stable; hydrogel | Stable | formed | formed | formed | – | –
6 | CWGGKaKaKaKaKaKaKa (CWGGK[dA]K[dA]K[dA]K[dA]K[dA]K[dA]K[dA]) [KdA7] | – | – | – | – | – | – | – | – | – | – | – | – | – | – | – | neither formation of a hydrogel | –

Reference: patent US11523990B2, “Non-covalent, self-organzing hydrogel matrix for biotechnological applications” (DENOVOMATRIX GMBH, priority 2012, dated 2022)
